{"source": "paper doi:10.1101/2025.08.29.672660", "biological_target": "HdpA^S-LEHHHHHH (HdpA devoid of its N-terminal hydrophobic segment, His-tagged) (Helicobacter pylori strain 26695)", "experiment": "crystal structure"}
{"substance": "LhiA^S-SAHHHHHH (LhiA devoid of its predicted signal peptide and lipidated cysteine, His-tagged) (natural protein)", "values": [{"measurement": "stoichiometry N", "result": 1}]}
